{"source": "FireProtDB (doi:10.1021/bi034486i)", "parents": {"B1": {"name": "Thioredoxin-like protein 4A, P83876 (parent)", "chain": "MSYMLPHLHNGWQVDQAILSEEDRVVVIRFGHDWDPTCMKMDEVLYSIAEKVKNFAVIYLVDITEVPDFNKMYELYDPCTVMFFFRNKHIMIDLGTGNNNKINWAMEDKQEMVDIIETVYRGARKGRGLVVSPKDYSTKYRY"}}, "data": [{"variants_of": "B1", "conditions": "Homo sapiens; pH 7.82; 20 °C; GdnHCl; CD; sodium phosphate 50 mM; structure 1QGV; whole UniProt chain shown", "units": {"ddG of mutation (higher = less stable)": "kcal/mol", "denaturant m value": "kcal/mol/M", "denaturant midpoint (higher = more stable)": "M", "unfolding free energy": "kcal/mol"}, "values": [{"variant": "G126D", "ddG of mutation (higher = less stable)": 1.71, "denaturant m value": 2.78, "denaturant midpoint (higher = more stable)": 3.36, "unfolding free energy": 9.34}]}]}
